One assay addresses T1, hPD-L1(ECD)-mFc (human).
T1 construct: Human PD-L1 extracellular domain fused to a mouse antibody heavy chain Fc tag; also called hPD-L1-mFc; PD-L1-mFc
Put plainly: ELISA, hPD-L1-mFc coated.

For assay [1], the target named is PD-L1抗原 (PD-L1 antigen coated in detection method 1.2) (human, UniProt Q9NZQ7 19-238, limits assumed). Put plainly: competition ELISA: PD-L1 antigen coated, competitor biotin PD-1-mFc. Background: ELISA stands for enzyme-linked immunosorbent assay.
Assay [2] concerns the target T2, PD-L1 on U2OS cells stably expressing PD-L1 (UniProt Q9NZQ7 19-290, limits assumed).
T2 construct: whole, on cells; also called PD-L1-U2OS; U2OS PD-L1细胞
Put plainly: flow cytometry on PD-L1-U2OS cells, competitor biotin PD-1 protein, MFI.

Assay [3] has as its target T3, 人PD-L1抗原 (hPD-L1-his, Sino biological 10084-H08H-200) (human, UniProt Q9NZQ7 19-239).
T3 construct: Bought analyte of the Biacore assay; also called human PD-L1 antigen
Description: SPR (Biacore T200), antibody captured by anti-human antibody on CM5, PD-L1-his as analyte, 1:1 Langmuir fit. (In SPR one partner is held on a chip, and binding of the other changes the refractive index at the surface.)

One may read the EC50 as the midpoint of the concentration-response curve. A higher EC50 goes with weaker potency. A word on the IC50: it is the concentration needed to halve the response being measured. One may read the Kd as the concentration at which binding is half-saturated. A lower Kd goes with higher affinity.

T2 sequence (Q9NZQ7 19-290 limits assumed): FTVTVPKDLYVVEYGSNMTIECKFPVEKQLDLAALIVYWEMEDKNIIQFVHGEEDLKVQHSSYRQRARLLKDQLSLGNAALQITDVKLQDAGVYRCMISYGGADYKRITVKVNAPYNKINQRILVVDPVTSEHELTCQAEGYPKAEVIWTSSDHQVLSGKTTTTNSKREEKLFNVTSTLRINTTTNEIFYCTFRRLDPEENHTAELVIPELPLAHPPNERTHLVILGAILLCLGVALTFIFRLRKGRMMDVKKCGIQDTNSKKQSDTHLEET
Chain of PD-L1抗原 (PD-L1 antigen coated in detection method 1.2) (Q9NZQ7 19-238 limits assumed): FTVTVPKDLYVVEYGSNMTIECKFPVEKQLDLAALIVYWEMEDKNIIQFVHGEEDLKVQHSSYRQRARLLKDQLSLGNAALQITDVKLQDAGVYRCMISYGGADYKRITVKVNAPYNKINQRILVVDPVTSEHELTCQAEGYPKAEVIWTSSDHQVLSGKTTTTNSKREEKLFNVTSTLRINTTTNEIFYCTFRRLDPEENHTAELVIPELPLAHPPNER
T1 sequence (chain, as listed by the source limits assumed): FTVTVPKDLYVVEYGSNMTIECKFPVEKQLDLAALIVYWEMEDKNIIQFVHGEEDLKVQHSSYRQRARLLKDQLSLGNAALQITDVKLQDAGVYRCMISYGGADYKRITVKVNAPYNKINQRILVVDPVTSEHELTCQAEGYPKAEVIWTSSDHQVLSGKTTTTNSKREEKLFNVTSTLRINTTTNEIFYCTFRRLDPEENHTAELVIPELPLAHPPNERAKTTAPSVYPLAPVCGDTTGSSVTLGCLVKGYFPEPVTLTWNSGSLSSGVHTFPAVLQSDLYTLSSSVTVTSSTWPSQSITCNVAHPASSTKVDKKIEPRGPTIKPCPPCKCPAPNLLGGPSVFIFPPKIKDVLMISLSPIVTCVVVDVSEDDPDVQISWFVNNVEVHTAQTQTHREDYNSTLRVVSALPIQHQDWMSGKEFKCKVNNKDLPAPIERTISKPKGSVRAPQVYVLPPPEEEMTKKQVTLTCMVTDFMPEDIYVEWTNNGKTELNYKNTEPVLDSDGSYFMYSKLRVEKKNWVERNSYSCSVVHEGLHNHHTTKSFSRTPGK
T3 sequence (Q9NZQ7 19-239 limits assumed): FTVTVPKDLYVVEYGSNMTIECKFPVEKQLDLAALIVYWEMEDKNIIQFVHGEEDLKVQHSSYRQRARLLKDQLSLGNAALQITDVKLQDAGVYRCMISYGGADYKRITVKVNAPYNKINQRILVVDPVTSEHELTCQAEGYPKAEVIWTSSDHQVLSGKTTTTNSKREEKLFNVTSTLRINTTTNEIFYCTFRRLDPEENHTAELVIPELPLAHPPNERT

B1: 嵌合抗体1(Chi1) chimeric antibody 1 (antibody, human IgG1, kappa, V domains shown)
VH: EVQLQESGPGLAKPSQTLSLTCSVTGYSITSDYWNWIRRFPGNKLEYMGYISYTGSTYYNPSLKSRISITRDTSKNQYYLQLKSVTTEDTATYYCARGEAWDRRTLDCWGQGTSVTVSS
VL: DFQMTQTTSSLSASLGDRVTISCRASQDITNYLNWYQQKPDGTVKLLIYYTSRLHSGVPSRFSGSGSGSDYALTISNLEQEDIATYFCQQVYTLPWTFGRGTKLEIKR
notes: expressed in ExpiCHO; also called 母本嵌合抗体
For B1, the concentration for a half-maximal effect (EC50) with hPD-L1(ECD)-mFc was found to be 0.107 µg/mL. Moreover, the figures for the concentration for half-maximal inhibition (IC50) in assay [1] and in assay [2] were 0.514 µg/mL and 0.195 µg/mL, respectively. The molecule further had a dissociation constant Kd in assay [3] of 674 pM.

B2: 嵌合抗体2-1(Chi2-1) chimeric antibody 2-1 (antibody, human IgG1, kappa, V domains shown)
VH: QVQLQQPGAELVRPGASVKLSCKASGYSFTFYWMNWVKQRPGQGLEWIGMIHPSDSETRLNQKFKDKATLTVDKSSSTAYMQLSSPTSEDTAVYYCVRNMVWSRQVMDYWGQGTSVTVSS
VL: DVVMTQTPLTLSVTIGQPASISCKSSQSLLDSDGNTYLNWLLQRPGESPKLLLYLVSKLDSGVPDRFTGSGSGTDFTLKIGRVEAADLGVYYCLQSTHFPYTFGGGTKLEIKR
notes: Mouse variable regions joined to human IgG1 and human kappa constant regions
B2 yielded a concentration giving a half-maximal response (EC50) with hPD-L1(ECD)-mFc of 0.145 µg/mL. Further, the 50% inhibitory concentration (IC50) in assay [1] was found to be 0.462 µg/mL; in assay [2] it was 0.248 µg/mL.

B3: hu-Chi1-3.4 (antibody, human IgG1, kappa, V domains shown)
VH: QVQLQESGPGLVKPSQTLSLTCTVSGYSITSDYWNWIRQHPGKGLEYIGYISYTGSTYYNPSLKSRVTISRDTSKNQFSLKLSSVTAADTAVYYCARGEAWDRRTLDYWGQGTLVTVSS
VL: DFQMTQSPSSLSASVGDRVTITCRASQDITNYLNWYQQKPDKAVKLLIYYTSRLHSGVPSRFSGSGSGTDFTLTISSLQPEDFATYYCQQVYTLPWTFGQGTKLEIKR
notes: also called Chi1_VH.1D / Chi1_VL.1C
In assay [3], B3 showed an equilibrium dissociation constant (Kd) of 799 pM.

B4: 嵌合抗体Chi2-2 chimeric antibody Chi2-2 (antibody, human IgG1, kappa, V domains shown)
VH: QVQLQQPGAELVRPGASVNLSCKTSGYSFTSYWMNWVKQRPGQGLEWIGMIHPSDSETWLNQKFKDKATLTVDKSSSTVHMQLSSPTSEDSAVFYCVRSMVWTRHVMDYWGQGTSVTVSS
VL: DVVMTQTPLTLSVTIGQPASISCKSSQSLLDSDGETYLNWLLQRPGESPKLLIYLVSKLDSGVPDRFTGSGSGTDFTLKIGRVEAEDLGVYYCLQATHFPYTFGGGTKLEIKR
notes: as for B2
In the case of B4, the IC50 in assay [1] was determined as 1.44 µg/mL; in assay [2], 2.17 µg/mL.
